# Source: the supplement of paper PMC7877785
# ± gives the uncertainty stated by the source.
# Assay: self-splicing fitness, log relative to wild type (ln ratio); higher = more splicing; Tetrahymena group I intron in knt gene, E. coli kanamycin selection, DiMSum; sequences stand for … in CUCUCU…GGAGGGAAAAGUUAUCAGGCAUGCACCUGGUAGCUAGUCUUUAAACCAAUAGAUUGCAUCGGUUUAAAAGGCAAGACCGUCAAAUUGCGGGAAAGGGGUCAACAGCCGUUCAGUACCAAGUCUCAGGGGAAACUUUGAGAUGGCCUUGCAAAGGGUAUGGUAAUAAGCUGACGGACAUGGUCCUAACCACGCAGCCAAGUCCUAAGUCAACAGAUCUUCUGUUGAUAUGGAUGCAGUUCACAGACUAAAUGUCGGUCGGGGAAGAUGUAUUCUUCUCAUAAGAUAUAGUCGGACCUCUCCUUAAUGGGAGCUAGCGGAUGAAGUGAUGCAACACUGGAGCCGCUGGGAACUAAUUUGUAUGCGAAAGUAUAUUGAUUAGUUUUGGAGUACUCGUGGUCG
# How it was run: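 DiMSum derived fitness as the error-weighted combination of fold changes across replicates, kanamycin versus no kanamycin, normalised to wild type. E. coli BL21(DE3) held the library, which randomised all eight P1ex-region intron nucleotides within the knt kanamycin-resistance gene on pET-22b(+). Six replicate transformations grew overnight at 37°C or 30°C on LB agar with or without 25 μg/mL kanamycin, also containing 100 μg/mL carbenicillin, 50 μM IPTG and 0.2% rhamnose, and pooled colonies were amplicon-sequenced on an Illumina HiSeq 2500.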
Sequence,self-splicing fitness (ln) (30 °C),self-splicing fitness (ln) (37 °C)
CAUGAGCAAUAUUACGUCAG,-1.35 ± 0.095,-1.13 ± 0.12
CAUGAGCAAUAUUACGUGAC,-3.75 ± 0.25,–
CAUGAGCAAUAUUACGUGCG,-1.75 ± 0.077,-0.908 ± 0.083
CAUGAGCAAUAUUACGUUGA,-2.92 ± 0.18,-3.4 ± 0.29
CAUUAGCAAUAUUACGAAUG,-2.67 ± 0.19,-2.28 ± 0.3
CAUUAGCAAUAUUACGACAC,-2.3 ± 0.2,-1.89 ± 0.23
CAUUAGCAAUAUUACGACAU,-3.364 ± 0.024,-1.97 ± 0.036
CAUUAGCAAUAUUACGACUA,-1.75 ± 0.49,–
CAUUAGCAAUAUUACGACUU,-1.99 ± 0.16,-1.71 ± 0.18
CAUUAGCAAUAUUACGAGAG,-2.5 ± 0.19,-2.63 ± 0.21
CAUUAGCAAUAUUACGAUAC,-3.07 ± 0.47,-2.23 ± 0.43
CAUUAGCAAUAUUACGAUUU,-2.32 ± 0.13,-1.56 ± 0.15
CAUUAGCAAUAUUACGCAGA,–,-1.78 ± 0.31
CAUUAGCAAUAUUACGCGGG,-1.95 ± 0.3,0.421 ± 0.2
CAUUAGCAAUAUUACGCUCC,–,-1.18 ± 0.38
CAUUAGCAAUAUUACGGCCA,-2.3 ± 0.28,–
CAUUAGCAAUAUUACGGGAU,-3.2 ± 0.19,-2.92 ± 0.23
CAUUAGCAAUAUUACGGGCA,-2.73 ± 0.27,-1.1 ± 0.16
CAUUAGCAAUAUUACGGUGA,-2.79 ± 0.19,-1.92 ± 0.13
CAUUAGCAAUAUUACGUCAG,-0.381 ± 0.091,-0.0898 ± 0.098
CAUUAGCAAUAUUACGUGAA,-2.94 ± 0.21,-3.18 ± 0.29
CAUUAGCAAUAUUACGUGGU,-4.46 ± 0.21,-2.6 ± 0.16
CCAAAGCAAUAUUACGAACC,-3.78 ± 0.47,-1.5 ± 0.34
CCAAAGCAAUAUUACGAGCA,-3.64 ± 0.23,-3.23 ± 0.26
CCAAAGCAAUAUUACGAGUA,-3.15 ± 0.23,-2.6 ± 0.23

Sequence,self-splicing fitness (ln) (30 °C),self-splicing fitness (ln) (37 °C)
CCAAAGCAAUAUUACGCAGC,-3.4 ± 0.26,-2.49 ± 0.33
CCAAAGCAAUAUUACGCAUG,-1.22 ± 0.063,-0.772 ± 0.084
CCAAAGCAAUAUUACGCCAG,-1.3 ± 0.1,-0.0837 ± 0.13
CCAAAGCAAUAUUACGCGCA,-3.48 ± 0.28,-3.13 ± 0.24
CCAAAGCAAUAUUACGGCGC,-3.65 ± 0.34,-2.49 ± 0.29
CCAAAGCAAUAUUACGGUUC,-2.91 ± 0.12,-2.34 ± 0.2
CCAAAGCAAUAUUACGUCGC,-3.49 ± 0.18,-2.29 ± 0.18
CCAAAGCAAUAUUACGUCGU,-3.82 ± 0.19,-2.75 ± 0.23
CCAAAGCAAUAUUACGUCUG,-0.9 ± 0.054,-0.302 ± 0.066
CCAAAGCAAUAUUACGUGCC,-3.77 ± 0.35,-2.31 ± 0.35
CCAAAGCAAUAUUACGUGUC,-3.56 ± 0.21,-3.6 ± 0.29
CCAAAGCAAUAUUACGUUGG,-4.54 ± 0.27,-3.32 ± 0.29
CCAAAGCAAUAUUACGUUUA,-3.26 ± 0.17,-2.63 ± 0.17
CCAAAGCAAUAUUACGUUUC,-4.24 ± 0.25,-2.78 ± 0.24
CCACAGCAAUAUUACGAAAU,-4.25 ± 0.24,-2.02 ± 0.17
CCACAGCAAUAUUACGACAC,-3.68 ± 0.29,-1.5 ± 0.18
CCACAGCAAUAUUACGACGC,-3.76 ± 0.33,-2.08 ± 0.35
CCACAGCAAUAUUACGAGCG,-0.707 ± 0.048,0.184 ± 0.065
CCACAGCAAUAUUACGCGAU,-3.36 ± 0.17,-3.66 ± 0.21
CCACAGCAAUAUUACGCGUA,-2.81 ± 0.18,-2.41 ± 0.2
CCACAGCAAUAUUACGCGUU,-3.65 ± 0.092,-2.91 ± 0.13
CCACAGCAAUAUUACGGCGG,-3.15 ± 0.14,-1.08 ± 0.12
CCACAGCAAUAUUACGGGUC,-3.86 ± 0.18,-2.89 ± 0.17
CCACAGCAAUAUUACGGGUG,-2.04 ± 0.05,-0.716 ± 0.059
